Molecular target: the molecule itself
Test: not described (homodimerisation stated in Example 7)

B1: STAT5A 1*7 (other)
chain: MAGWIQAQQLQGDALRQMQVLYGQHFPIEVRHYLAQWIESQPWDAIDLDNPQDRGQATQLLEGLVQELQKKAEHQVGEDGFLLKIKLGHYATQLQNTYDRCPMELVRCIRHILYNEQRLVREANNCSSPAGVLVDAMSQKHLQINQRFEGLRLITQDTENELKKLQQTQEYFIIQYQESLRIQAQFAQLGQLNPQERMSRETALQQKQVSLETWLQREAQTLQQYRVELAEKHQKTLQLLRKQQTIILDDELIQWKRRQQLAGNGGPPEGSLDVLQSWCEKLAEIIWQNRQQIRRAEHLCQQLPIPGPVEEMLAEVNATITDIISALVTSTFIIEKQPPQVLKTQTKFAATVRLLVGGKLNVHMNPPQVKATIISEQQAKSLLKNENTRNECSGEILNNCCVMEYHQATGTLSAHFRNMSLKRIKRADRRGAESVTEEKFTVLFESQFSVGSNELVFQVKTLSLPVVVIVHGSQDHNATATVLWDNAFAEPGRVPFAVPDKVLWPQLCEALNMKFKAEVQSNRGLTKENLVFLAQKLFNISSNHLEDYNSMSVSWSQFNRENLPGWNYTFWQWFDGVMEVLKKHHKPHWNDGAILGFVNKQQAHDLLINKPDGTFLLRFSDSEIGGITIAWKFDSPDRNLWNLKPFTTRDFSIRSLADRLGDLNYLIYVFPDRPKDEVFAKYYTPVLAKAVDGYVKPQIKQVVPEFVNAFTDAGASATYMDQAPSPVVCPQPHYNMYPPNPDPVLDQDGEFDLDESMDVARHVEELLRRPMDSLDARLSPPAGLFTSARSSLS
notes: Expressed from the retrovirus vector GCsam-IRES-EGFP; also called STAT5 1*7; active STAT5 variant
B1: binds.
